Positions count from the first letter of the chain named.
B1: 1.21.1-1 (antibody, human IgG1, kappa)
heavy: QVQLLQSGAAVTKPGASVRVSCEASGYNIRDYFIHWWRQAPGQGLQWVGWINPKTGQPNNPRQFQGRVSLTRDASWDFDTFSFYMDLKALRSDDTAVYFCARQRSDYWDFDVWGSGTQVTVSSASTKGPSVFPLAPSSKSTSGGTAALGCLVKDYFPEPVTVSWNSGALTSGVHTFPAVLQSSGLYSLSSVVTVPSSSLGTQTYICNVNHKPSNTKVDKKVEPKSCDKTHTCPPCPAPELLAGPDVFLFPPKPKDTLMISRTPEVTCVVVDVSHEDPEVKFNWYVDGVEVHNAKTKPREEQYNSTYRVVSVLTVLHQDWLNGKEYKCKVSNKALPLPEEKTISKAKGQPREPQVYTLPPSREEMTKNQVSLTCLVKGFYPSDIAVEWESNGQPENNYKTTPPVLDSDGSFFLYSKLTVDKSRWQQGNVFSCSVLHEALHSHYTQKSLSLSPGK
light: DIQMTQSPSSLSASVGDTVTITCQANGYLNWYQQRRGKAPKLLIYDGSKLERGVPSRFSGRRWGQEYNLTINNLQPEDIATYFCQVYEFVVPGTRLDLKRTVAAPSVFIFPPSDEQLKSGTASVVCLLNNFYPREAKVQWKVDNALQSGNSQESVTEQDSKDSTYSLSSTLTLSKADYEKHKVYACEVTHQGLSSPVTKSFNRGEC
B2: 1.26.1-1 (antibody, human IgG1, kappa)
heavy: B1 heavy with D73H, V97T
light: B1 light
B3: 1.24.1-1 (antibody, human IgG1, kappa)
heavy: B1 heavy with D73H, Y84S
light: B1 light
B4: 1.22.1-1 (antibody, human IgG1, kappa)
heavy: QVQLLQSGAAVTKPGASVRVSCEASGYNIRDYFIHWWRQAPGQGLQWVGWINPKTGQPNNPRQFQGRVSLTRHASTFSFYMDLKALRSDDTAVYFCARQRSDYWDFDVWGSGTQVTVSSASTKGPSVFPLAPSSKSTSGGTAALGCLVKDYFPEPVTVSWNSGALTSGVHTFPAVLQSSGLYSLSSVVTVPSSSLGTQTYICNVNHKPSNTKVDKKVEPKSCDKTHTCPPCPAPELLAGPDVFLFPPKPKDTLMISRTPEVTCVVVDVSHEDPEVKFNWYVDGVEVHNAKTKPREEQYNSTYRVVSVLTVLHQDWLNGKEYKCKVSNKALPLPEEKTISKAKGQPREPQVYTLPPSREEMTKNQVSLTCLVKGFYPSDIAVEWESNGQPENNYKTTPPVLDSDGSFFLYSKLTVDKSRWQQGNVFSCSVLHEALHSHYTQKSLSLSPGK
light: B1 light
B5: 1.25.1-1 (antibody, human IgG1, kappa)
heavy: B1 heavy with D73H, K88S, A89R
light: B1 light
B6: 1.28.1-1 (antibody, human IgG1, kappa)
heavy: B1 heavy with D73H, V97T, S105T
light: B1 light
B7: 1.27.1-1 (antibody, human IgG1, kappa)
heavy: B1 heavy with D73H, S105T
light: B1 light
B8: 1v2-1 (antibody, human IgG1, kappa)
heavy: B1 heavy with D73H, F81Y
light: B1 light

These binders were tested against HIV gp120 Bal (HIV) (assay: single-point ELISA; further: test concentration or dose not given here).

| Binder | ELISA (A450) |
| --- | --- |
| B1 | 0.87 |
| B2 | 0.81 |
| B3 | 0.98 |
| B4 | 1.03 |
| B5 | 1.07 |
| B6 | 1.05 |
| B7 | 0.86 |
| B8 | 1.03 |

Each binder was assayed against HIV gp120 CAAN (HIV) (assay: single-point ELISA; further: test concentration or dose not given here).

| Binder | ELISA (A450) |
| --- | --- |
| B1 | 0.77 |
| B2 | 1 |
| B3 | 0.9 |
| B4 | 0.87 |
| B5 | 1.16 |
| B6 | 0.99 |
| B7 | 0.86 |
| B8 | 1 |

Reference: patent US20220089698A1 (published 2022)
